{"source": "paper PMC5727262", "about": "“Molecular mechanism of K65 acetylation-induced attenuation of Ubc9 and the NDSM interaction” (Scientific Reports, 2017)", "molecules": {"B1": {"name": "GST-RanGAP1_481-587: GST fusion of the sumoylation motif region derived from RanGAP1, sumoylation substrate (protein)", "chain": "KDEATVRMAVQDAVDALMQKAFNSSSFNSNTFLTRLLVHMGLLKSEDKVKAIANLYGPLMALNHMVQQDYFPKALAPLLLAFVTKPNSALESCSFARHSLLQTLYKV", "modifications": "left off: GST, end not stated, kept", "notes": "GST fusion of the sumoylation motif region derived from RanGAP1, sumoylation substrate"}, "B2": {"name": "GST-Elk1_200-261: GST fusion of the sumoylation motif region derived from Elk1, sumoylation substrate (protein)", "chain": "SPSPLEACLEAEEAGLPLQVILTPPEAPNLKSEELNVEPGLGRALPPEVKVEGPKEELEVAG", "modifications": "also: GST fusion partner not in chain", "notes": "GST fusion of the sumoylation motif region derived from Elk1, sumoylation substrate"}, "B3": {"name": "GST-CBP1000-1080: GST fusion of the sumoylation motif region derived from CBP, sumoylation substrate (protein)", "chain": "ETQAEDTEPDPGESKGEPRSEMMEEDLQGASQVKEETDIAEQKSEPMEVDEKKPEVKVEVKEEEESSSNGTASQSTSPSQP", "modifications": "left off: GST, end not stated, kept", "notes": "GST fusion of the sumoylation motif region derived from CBP, sumoylation substrate"}}, "data": [{"target": "T1, Ac-Ubc9K65 (Homo sapiens, UniProt P63279)", "T1 construct": "made in house; host or cells: E. coli BL21 (DE3) with pAcKRS-3 and pCDF PylT-1-Ubc9 (amber codon at K65), fed acetyl-lysine", "T1 sequence (P63279 2-158)": "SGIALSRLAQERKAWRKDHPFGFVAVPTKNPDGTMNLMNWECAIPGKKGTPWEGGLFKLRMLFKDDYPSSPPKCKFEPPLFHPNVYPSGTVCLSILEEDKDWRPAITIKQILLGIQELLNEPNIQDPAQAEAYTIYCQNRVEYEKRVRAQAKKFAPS", "assay": "Multiple-turnover in vitro sumoylation kinetics with Ac-Ubc9K65", "assay_type": "biochemical", "details": "Michaelis-Menten, SUMO-1 conjugation, 100 nM Ac-Ubc9K65, 10 μM SUMO-1, 150 nM E1, pH 7.5, SDS-PAGE/SYPRO-RUBY, triplicate", "procedure": "(§1) Although the decreased Ubc9 binding to the NDSM substrates on K65 acetylation could explain the reduced levels of NDSM substrate sumoylation, we could not entirely exclude the possibility that K65 acetylation could also affect Ubc9 catalytic activity. To test this possibility, an enzyme kinetics study was performed using multiple-turnover in vitro sumoylation assays between WT or Ac-Ubc9K65 and GST fusion of SM derived from RanGAP1 (Fig. 3A and B), Elk1 (Fig. 3C and D), and CBP (Fig. 3E and F). […] In line with the ITC results, K65 acetylation increased the km values by 1.5–1.7 fold of the NDSM peptides, but not the RanGAP1 SM.\n(§2) Figure 3 Effect of K65 acetylation on Ubc9 catalysis. (A) Summary of Michaelis–Menten kinetics applied to SUMO conjugation rates for GST-RanGAP1_481-587 (B and C), GST-Elk1_200-261 (D and E) and GST-CBP1000-1080 (F and G). Experiments performed in triplicate. TEXT PRINTED IN THE PICTURE: (A) RanGAP1: Km (μM): 24.8 ± 1.7 (Ubc9: WT); kcat (min^-1): 4.3 ± 0.1 (Ubc9: WT); Km (μM): 21.0 ± 4.4 (Ubc9: K65-Ac); kcat (min^-1): 4.1 ± 0.3 (Ubc9: K65-Ac) | (A) Elk1: Km (μM): 75.2 ± 5.9 (Ubc9: WT); kcat (min^-1): 3.7 ± 0.5 (Ubc9: WT); Km (μM): 110.7 ± 7.8 (Ubc9: K65-Ac); kcat (min^-1): 4.0 ± 0.2 (Ubc9: K65-Ac) | (A) CBP: Km (μM): 63.8 ± 7.9 (Ubc9: WT); kcat (min^-1): 3.8 ± 0.4 (Ubc9: WT); Km (μM): 111.0 ± 11.6 (Ubc9: K65-Ac); kcat (min^-1): 4.5 ± 0.4 (Ubc9: K65-Ac) | (A) Calpain2: Km (μM): N.D. (Ubc9: WT); kcat (min^-1): N.D. (Ubc9: WT); Km (μM): N.D. (Ubc9: K65-Ac); kcat (min^-1): N.D. (Ubc9: K65-Ac)\n(§3) The kinetic analysis[27] was performed in a 40 μl reaction mixture containing 10 μM SUMO-1, 150 nM E1, 100 nM WT or Ac-Ubc9K65, and known quantities of sumoylation substrate dissolved in a buffer containing 20 mM HEPES (pH 7.5), 100 mM NaCl, 5 mM MgCl2, and 2 mM ATP. The samples were subject to SDS-PAGE and visualized by SYPRO-RUBY staining using the UVP Gel-Doc-It system to quantify the sumoylated and non-sumoylated protein bands. Data from triplicate experiments were plotted as a graph of reaction velocity against concentration of the substrate to obtain the Michaelis–Menten constant (km) and the turnover number (kcat).", "units": {"Km": "µM"}, "values": [{"molecule": "B1", "Km": "21 ± 4.4"}, {"molecule": "B2", "Km": "111 ± 7.8"}, {"molecule": "B3", "Km": "111 ± 11.6"}]}, {"target": "T1, Ac-Ubc9K65", "assay": "Multiple-turnover in vitro sumoylation kinetics with Ac-Ubc9K65", "assay_type": "biochemical", "details": "Michaelis-Menten, SUMO-1 conjugation, 100 nM Ac-Ubc9K65, 10 μM SUMO-1, 150 nM E1, pH 7.5, triplicate", "procedure": "as §1, §2, §3", "units": {"kcat": "s⁻¹"}, "values": [{"molecule": "B1", "kcat": "0.0683 ± 0.005"}, {"molecule": "B2", "kcat": "0.0667 ± 0.0033"}, {"molecule": "B3", "kcat": "0.075 ± 0.0067"}]}, {"target": "T2, Ubc9 (WT) (Homo sapiens, UniProt P63279)", "T2 construct": "made in house; host or cells: E. coli (stated as BL21 (DE3) for the acetylated variant)", "T2 sequence (P63279 whole entry)": "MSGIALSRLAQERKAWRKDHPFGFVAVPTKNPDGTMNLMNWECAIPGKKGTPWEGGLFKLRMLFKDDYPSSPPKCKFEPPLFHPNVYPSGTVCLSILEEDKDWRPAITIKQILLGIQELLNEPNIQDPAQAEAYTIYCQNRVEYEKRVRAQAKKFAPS", "assay": "Multiple-turnover in vitro sumoylation kinetics with WT Ubc9", "assay_type": "biochemical", "details": "Michaelis-Menten, SUMO-1 conjugation, 100 nM WT Ubc9, 10 μM SUMO-1, 150 nM E1, pH 7.5, SDS-PAGE/SYPRO-RUBY, triplicate", "procedure": "as §1, §2, §3", "units": {"Km": "µM"}, "values": [{"molecule": "B1", "Km": "24.8 ± 1.7"}, {"molecule": "B2", "Km": "75.2 ± 5.9"}, {"molecule": "B3", "Km": "63.8 ± 7.9"}]}, {"target": "T2, Ubc9 (WT)", "assay": "Multiple-turnover in vitro sumoylation kinetics with WT Ubc9", "assay_type": "biochemical", "details": "Michaelis-Menten, SUMO-1 conjugation, 100 nM WT Ubc9, 10 μM SUMO-1, 150 nM E1, pH 7.5, triplicate", "procedure": "as §1, §2, §3", "units": {"kcat": "s⁻¹"}, "values": [{"molecule": "B1", "kcat": "0.0717 ± 0.0017"}, {"molecule": "B2", "kcat": "0.0617 ± 0.0083"}, {"molecule": "B3", "kcat": "0.0633 ± 0.0067"}]}]}
